The record followed here is paper PMC10980018.

This assay deals with HKU5-20s trimeric ectodomain with 2P stabilizing mutations (merbecovirus HKU5-20s (host Pipistrellus abramus)). Briefly: cryo-EM structure.

Substance “HKU5-20s trimeric ectodomain with 2P stabilizing mutations (domain or fragment)” displayed a stoichiometry N of 3.
